Measured values taken from the Immune Epitope Database (IEDB).

Experiments:
HLA-B*35:01 = test: IEDB peptide-MHC binding, purified MHC/competitive/radioactivity; filed as Kd, often an IC50 or EC50 that approximates it; ≥ and ≤ were set here for values at or beyond the usual limits of such assays
HLA-B*07:02 [1] = test: as above
HLA-A*11:01 [2] = test: IEDB peptide-MHC binding, purified MHC/competitive/fluorescence; ≥ and ≤ were set here for values at or beyond the usual limits of such assays
HLA-A*02:06 = test: IEDB peptide-MHC binding, purified MHC/competitive/radioactivity; filed as Kd, often an IC50 or EC50 that approximates it; ≥ and ≤ were set here for values at or beyond the usual limits of such assays
HLA-A*68:02 = test: as above
HLA-A*68:01 = test: as above; conditions: source organism: Dengue virus 2 Peru/IQT2913/1996
HLA-B*08:01 [3] = test: as above
HLA-A*31:01 = test: as above; conditions: source organism: Dengue virus 2 Peru/IQT2913/1996
HLA-A*33:01 = test: as above; conditions: source organism: Dengue virus 2 Peru/IQT2913/1996
HLA-A*03:01 [4] = test: as above; conditions: source organism: Dengue virus 2 Peru/IQT2913/1996
HLA-B*51:01 [5] = test: as above
HLA-B*53:01 = test: as above; conditions: source organism: Dengue virus 3 Martinique/1243/1999
HLA-B*51:01 [6] = test: IEDB peptide-MHC binding, purified MHC/competitive/fluorescence; filed as Kd, often an IC50 or EC50 that approximates it; ≥ and ≤ were set here for values at or beyond the usual limits of such assays; conditions: source organism: Yersinia pestis Nepal516
HLA-A*03:01 [7] = test: as above
HLA-A*11:01 [8] = test: IEDB peptide-MHC binding, purified MHC/direct/fluorescence; filed as Kd, often an IC50 or EC50 that approximates it; ≥ and ≤ were set here for values at or beyond the usual limits of such assays; conditions: source organism: SARS-CoV1
HLA-B*08:01 [9] = test: as above; conditions: source organism: SARS-CoV1
HLA-B*07:02 [10] = test: as above; conditions: source organism: SARS-CoV1
HLA-A*02:01 [11] = test: IEDB peptide-MHC binding, purified MHC/competitive/radioactivity; filed as Kd, often an IC50 or EC50 that approximates it; ≥ and ≤ were set here for values at or beyond the usual limits of such assays
HLA-A*02:03 = test: as above; conditions: source organism: Trypanosoma cruzi
HLA-A*02:02 = test: as above; conditions: source organism: Trypanosoma cruzi
HLA-A*24:02 = test: IEDB peptide-MHC binding, purified MHC/competitive/fluorescence; ≥ and ≤ were set here for values at or beyond the usual limits of such assays; conditions: source organism: Zaire ebolavirus
HLA-A*02:01 [12] = test: as above; conditions: source organism: Zaire ebolavirus
HLA-A*24:03 = test: IEDB peptide-MHC binding, purified MHC/direct/fluorescence; filed as Kd, often an IC50 or EC50 that approximates it; ≥ and ≤ were set here for values at or beyond the usual limits of such assays; conditions: source organism: Mycobacterium tuberculosis variant bovis
HLA-B*27:05 = test: as above; conditions: source organism: SARS-CoV1
[13] = source organism: Dengue virus 3 Martinique/1243/1999
[14] = source organism: Sudan ebolavirus
[15] = source organism: Dengue virus 4 Philippines/H241/1956
[16] = source organism: Vaccinia virus WR
[17] = source organism: Dengue virus 1 Brazil/97-11/1997
[18] = source organism: Dengue virus 2 Jamaica/1409/1983
[19] = source organism: Trypanosoma cruzi
[20] = source organism: Zaire ebolavirus

Sequence: LPWTSGATT
- Kd (HLA-B*35:01; [13]): 1300 nM
- Kd (HLA-B*07:02 [1]; [13]): 25.8 nM

Sequence: LSNTTGRLI
- IC50 (HLA-A*11:01 [2]; [14]): 55500 nM

Sequence: LVMLLVHYAI
- Kd (HLA-A*02:06; [15]): 151 nM
- Kd (HLA-A*68:02; [15]): 1260 nM

Sequence: MLINRFTMR
- Kd (HLA-A*68:01): 17.7 nM
- Kd (HLA-B*08:01 [3]; source organism: Dengue virus 2 Peru/IQT2913/1996): 906 nM
- Kd (HLA-A*31:01): 4.29 nM
- Kd (HLA-A*33:01): 20.4 nM
- Kd (HLA-A*03:01 [4]): 57 nM

Sequence: MPSMKRFRKE
- Kd (HLA-B*51:01 [5]; [13]): ≥ 69600 nM
- Kd (HLA-B*53:01): 10900 nM
- Kd (HLA-B*35:01; [13]): 14000 nM

Sequence: MQSLKFNRA
- Kd (HLA-B*08:01 [3]; [16]): 307 nM

Sequence: MTCIAVGMV
- Kd (HLA-A*68:02; [17]): 7.63 nM

Sequence: MTYLPAWQV
- Kd (HLA-B*51:01 [6]): ≥ 20000 nM

Sequence: MVYKLWFKY
- Kd (HLA-A*03:01 [7]; source organism: Entamoeba dispar SAW760): 14100 nM

Sequence: NKKRFFSDV
- Kd (HLA-B*08:01 [3]; [16]): 8720 nM

Sequence: NNSWKFNSE
- Kd (HLA-B*08:01 [3]; [16]): 129 nM

Sequence: NPKTPKYKF
- Kd (HLA-A*11:01 [8]): 3960 nM
- Kd (HLA-B*08:01 [9]): 1150 nM
- Kd (HLA-B*07:02 [10]): ≥ 28600 nM

Sequence: PENITTAVK
- IC50 (HLA-A*11:01 [2]; [14]): ≥ 178000 nM

Sequence: PPFGESYIV
- Kd (HLA-B*51:01 [5]; [17]): 9840 nM

Sequence: PRRCLKPVIL
- Kd (HLA-B*08:01 [3]; [17]): 2720 nM

Sequence: QLKDKADFCI
- Kd (HLA-A*02:06; source organism: Homo sapiens): ≥ 32100 nM
- Kd (HLA-A*68:02; source organism: Homo sapiens): 13400 nM

Sequence: RAAGLQDCT
- Kd (HLA-A*02:01 [11]; source organism: Hepatitis C virus (isolate 1)): ≥ 50000 nM

Sequence: RKNGKKVIQL
- Kd (HLA-B*08:01 [3]; [18]): 161 nM

Sequence: RPISEKEENM
- Kd (HLA-B*35:01; [13]): 502 nM
- Kd (HLA-B*07:02 [1]; [13]): 135 nM

Sequence: RVSRPTTVV
- Kd (HLA-A*02:03): 105 nM
- Kd (HLA-A*02:06; [19]): 1340 nM
- Kd (HLA-A*02:02): 6200 nM
- Kd (HLA-A*68:02; [19]): 200 nM

Sequence: SEKMRRERA
- Kd (HLA-B*08:01 [3]; [16]): 169 nM

Sequence: SLNRNFTLV
- Kd (HLA-A*02:03): 0.0957 nM
- Kd (HLA-A*02:06; [19]): 0.69 nM
- Kd (HLA-A*02:02): 0.143 nM
- Kd (HLA-A*02:01 [11]; [19]): 23.6 nM
- Kd (HLA-A*68:02; [19]): 227 nM

Sequence: SRFTPQFLL
- IC50 (HLA-A*24:02): 1730 nM
- IC50 (HLA-A*11:01 [2]; [20]): 45400 nM
- IC50 (HLA-A*02:01 [12]): ≥ 106000 nM

Sequence: SSTSRFVMF
- Kd (HLA-B*08:01 [3]; [16]): 1100 nM

Sequence: SVYGLMGFK
- Kd (HLA-A*03:01 [7]; source organism: Myxoma virus): 9.2 nM

Sequence: SYYPDQKSL
- Kd (HLA-A*24:03): 8.4 nM

Sequence: TALTGATEI
- Kd (HLA-B*51:01 [5]; [18]): 623 nM

Sequence: THNTPVYKL
- IC50 (HLA-A*24:02): 17600 nM
- IC50 (HLA-A*11:01 [2]; [20]): 62400 nM
- IC50 (HLA-A*02:01 [12]): ≥ 735000 nM

Sequence: TKTTAKEVAL
- Kd (HLA-B*08:01 [3]; source organism: Dengue virus 4 Dominica/814669/1981): 4000 nM

Sequence: TLTSDDLLI
- Kd (HLA-A*02:01 [11]; source organism: Lassa virus Josiah): 4170 nM

Sequence: TPPGATDPF
- Kd (HLA-B*35:01; [15]): 132 nM
- Kd (HLA-B*07:02 [1]; [15]): 1070 nM

Sequence: TVHADTGCAV
- Kd (HLA-A*68:02; [15]): 86.1 nM

Sequence: VLDQIDKNK
- IC50 (HLA-A*11:01 [2]; [16]): ≥ 71200 nM

Sequence: VPNYNMIIM
- Kd (HLA-B*51:01 [5]; [17]): 879 nM
- Kd (HLA-B*35:01; [17]): 13.5 nM
- Kd (HLA-B*07:02 [1]; [17]): 54 nM

Sequence: YRYLRHGKL
- Kd (HLA-B*27:05): 78.6 nM
- Kd (HLA-B*08:01 [9]): 104 nM

Sequence: YSFSMFMSL
- Kd (HLA-B*08:01 [3]; [16]): 146 nM
